Target: dimeric human Tie2 extracellular domain (ECD)-human IgG fusion protein (UniProt Q02763)
Sequence (Q02763 23-748): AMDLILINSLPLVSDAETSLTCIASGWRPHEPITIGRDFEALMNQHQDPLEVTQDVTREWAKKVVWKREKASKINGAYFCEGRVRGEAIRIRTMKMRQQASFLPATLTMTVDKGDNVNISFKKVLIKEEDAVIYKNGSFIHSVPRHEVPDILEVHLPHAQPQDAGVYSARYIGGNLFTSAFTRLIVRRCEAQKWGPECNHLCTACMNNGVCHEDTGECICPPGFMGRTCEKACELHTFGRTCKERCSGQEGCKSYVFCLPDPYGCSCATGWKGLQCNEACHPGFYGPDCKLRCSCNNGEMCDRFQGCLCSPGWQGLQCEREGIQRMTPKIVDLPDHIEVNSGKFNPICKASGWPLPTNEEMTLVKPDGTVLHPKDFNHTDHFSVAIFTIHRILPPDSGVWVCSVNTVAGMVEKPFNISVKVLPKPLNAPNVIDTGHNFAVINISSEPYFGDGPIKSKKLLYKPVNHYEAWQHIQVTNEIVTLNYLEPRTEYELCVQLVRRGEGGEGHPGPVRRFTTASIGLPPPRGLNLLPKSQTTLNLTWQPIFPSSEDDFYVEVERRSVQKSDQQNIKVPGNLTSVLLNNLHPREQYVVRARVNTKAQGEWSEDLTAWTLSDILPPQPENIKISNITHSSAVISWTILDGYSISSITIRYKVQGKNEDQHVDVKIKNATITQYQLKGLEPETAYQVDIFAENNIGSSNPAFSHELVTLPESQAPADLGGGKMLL

Recombinant human MMP-14
cleavage of hTie2-ECD (reducing SDS-PAGE, 30° C., 16 hours): co-incubation of MMP-14 and human Tie2 resulted in significant reduction of intact hTie2-ECD, with the appearance of shorter, cleaved fragments

— patent US20230287109
